Experimental data published in FireProtDB (doi:10.1021/bi061295h).
Values joined by “and” are separate entries in the source; they are usually repeats but may differ in a detail not shown here. Equal values may be shown once.

B1: Fatty acid-binding protein, intestinal wild type, P02693 (protein)
chain: MAFDGTWKVDRNENYEKFMEKMGINVVKRKLGAHDNLKLTITQEGNKFTVKESSNFRNIDVVFELGVDFAYSLADGTELTGTWTMEGNKLVGKFKRVDNGKELIAVREISGNELIQTYTYEGVEAKRIFKKE
B2: Alpha-lactalbumin wild type, P00711 (protein)
chain: MMSFVSLLLVGILFHATQAEQLTKCEVFRELKDLKGYGGVSLPEWVCTTFHTSGYDTQAIVQNNDSTEYGLFQINNKIWCKDDQNPHSSNICNISCDKFLDDDLTDDIMCVKKILDKVGINYWLAHKALCSEKLDQWLCEKL

Settings: 25 °C, reversible: Yes, whole UniProt chain shown
[1] = Rattus norvegicus, pH 7.5, Urea, Fluorescence, Sodium phosphate 20 mM, KCl 100 mM
[2] = Bos taurus, pH 7.4, GdnHCl, CD, Tris 20 mM

Protein | denaturant m value [1] | unfolding free energy [1] | denaturant m value (Rattus norvegicus, pH 7.5, Urea, SUPREX, Sodium phosphate 20 mM, KCl 100 mM) | denaturant m value [2] | unfolding free energy [2] | denaturant m value (Bos taurus, pH 7.4, GdnHCl, SUPREX, Sodium phosphate 20 mM)
B1 | 1.7 kcal/mol/M | 9.2 kcal/mol | 1 kcal/mol/M and 2.7 kcal/mol/M and 0.9 kcal/mol/M | – | – | –
B2 | – | – | – | 1.4 kcal/mol/M | 3 kcal/mol | 1.6 kcal/mol/M
